Experiment [1] deals with human B lymphocyte-restricted differentiation antigen Bp35 (CD20) (human) (UniProt P11836). The experiment can be described thus: direct binding of I-125 radiolabeled antibody to CD20 positive B cells, Scatchard plot; printed as apparent affinity constant (Kap).
Experiment [2] shares this target. The experiment can be described thus: radioimmunoassay: hybridoma medium against 10 ng I-125 labeled anti-CD20 Bl on 100,000 SB cells.
Experiment [3] has as its target T1, human B lymphocyte-restricted differentiation antigen Bp35 (CD20) (human, UniProt P11836 1-297).
T1 construct: whole, on cells; Presented on SB cells, other CD20 positive B cell lines or acetone-fixed human tissues; also called CD20 antigen; CD20 surface antigen
T1 sequence (looked up): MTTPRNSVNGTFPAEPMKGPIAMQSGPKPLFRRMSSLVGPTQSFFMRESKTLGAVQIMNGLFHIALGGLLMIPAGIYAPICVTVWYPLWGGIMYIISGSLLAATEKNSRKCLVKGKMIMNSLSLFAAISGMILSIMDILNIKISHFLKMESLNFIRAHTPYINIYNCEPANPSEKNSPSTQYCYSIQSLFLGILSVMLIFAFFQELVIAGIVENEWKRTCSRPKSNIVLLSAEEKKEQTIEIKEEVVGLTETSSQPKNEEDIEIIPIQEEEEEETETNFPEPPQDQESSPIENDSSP
The experiment can be described thus: direct binding of I-125 radiolabeled antibody to CD20 positive B cells, Scatchard plot; printed as apparent affinity constant (Kap).

Take “murine anti-CD20 monoclonal antibody 2B8”: the Kd in experiment [1] was found to be 3.5 nM. Besides, the % inhibition of I-125 labeled anti-CD20 Bl binding in experiment [2] is 50%.

B1: chimeric anti-CD20 antibody produced by the CHO transfectoma (antibody, V domains shown)
VH: QVQLQQPGAELVKPGASVKMSCKASGYTFTSYNMHWVKQTPGRGLEWIGAIYPGNGDTSYNQKFKGKATLTADKSSSTAYMQLSSLTSEDSAVYYCARSTYYGGDWYFNVWGAGTTVTVSA
VL: QIVLSQSPAILSASPGEKVTMTCRASSSVSYIHWFQQKPGSSPKPWIYATSNLASGVPVRFSGSGSGTSYSLTISRVEAEDAATYYCQQWTSNPPTFGGGTKLEIK
notes: domain: heavy chain gamma 1 constant region (Kabat numbering amino acids 114-478); also called C2B8; CHO produced chimeric anti-CD20; not shown: human immunoglobulin light chain kappa constant region, Kabat numbering amino acids 108-214, allotype Km 3
With B1, the Kd in experiment [3] was determined as 5.2 nM.

B2: chimeric anti-CD20 antibody produced by the SP2/0 transfectoma (antibody, V domains shown)
VH: QVQLQQPGAELVKPGASVKMSCKASGYTFTSYNMHWVKQTPGRGLEWIGAIYPGNGDTSYNQKFKGKATLTADKSSSTAYMQLSSLTSEDSAVYYCARSTYYGGDWYFNVWGAGTTVTVSA
VL: QIVLSQSPAILSASPGEKVTMTCRASSSVSYIHWFQQKPGSSPKPWIYATSNLASGVPVRFSGSGSGTSYSLTISRVEAEDAATYYCQQWTSNPPTFGGGTKLEIK
notes: domain: heavy chain gamma 1 constant region (Kabat numbering amino acids 114-478); Same construct as m2, but produced in SP2/0 mouse myeloma cells; also called SP2/0 produced antibody; not shown: human immunoglobulin light chain kappa constant region, Kabat numbering amino acids 108-214, allotype Km 3
As to B2, the Kd in experiment [3] was found to be 7.4 nM.

For the origin of these results see patent US20030147885A1 (IDEC PHARMACEUTICALS, published 2003).
